The chains are these.
B1: reference antibody 371 (murine/human chimeric) (antibody, V domains shown)
VH: QVQLQQSGAELVRPGASVTLSCKASGYTFAGFEMHWIKQTPVHGLGWIGAIDPKTGGTDYNQKFKDKALLTADKSSNTAYMELRSLTSEDSAVYYCTRDLGYFDVWGTGTTVTVSS
VL: DIQMTQTTSSLSASLGDRVTISCRASQDIRSNLNWYQQKPDGTVKLLIYYTSRLHSGVPSRFSGSGSGTDYSLTISNLEQEDIATYFCQQSEKLPRTFGGGTKLEIRR
B2: humanized anti-CD137 antibody clone 3715 (IgG4 S228P/kappa) (antibody, V domains shown)
VH: QVQLVQSGAEVVKPGASVKVSCKASGYTFAGFEMHWVRQAPGQGLGWMGAIDPKTGGTDYNQKFKDRVTMTADTSISTAYMELSRLRSDDTAVYYCTRDLGYFDVWGQGTLVTVSS
VL: DIQMTQSPSSLSASVGDRVTITCRASQDIRSNLNWYQQKPGGAVKLLIYYTSRLHSGVPSRFSGSGSGTDYTLTISSLQPEDFATYFCQQSEKLPRTFGGGTKVEIRR
B3: humanized anti-CD137 antibody clone 3718 (IgG4 S228P/kappa) (antibody, V domains shown)
VH: B2 VH with V20L, V37I, M48I, V68A, M70L
VL: B2 VL
B4: humanized anti-CD137 antibody clone 3712 (IgG4 S228P/kappa) (antibody, V domains shown)
VH: B2 VH with V12K, G46E, A72R, T97A
VL: B2 VL
B5: humanized anti-CD137 antibody clone 3717 (IgG4 S228P/kappa) (antibody, V domains shown)
VH: B2 VH with V20L, V37I, M48I, V68A, M70L
VL: B2 VL with G42K, V44P, Y71F, F87Y
B6: humanized anti-CD137 antibody clone 3716 (IgG4 S228P/kappa) (antibody, V domains shown)
VH: B2 VH
VL: B2 VL with V104L
B7: humanized anti-CD137 antibody clone 3714 (IgG4 S228P/kappa) (antibody, V domains shown)
VH: B2 VH
VL: B2 VL with G42K, V44P, Y71F, F87Y
B8: humanized anti-CD137 antibody clone 3719 (IgG4 S228P/kappa) (antibody, V domains shown)
VH: B2 VH with V20L, V37I, M48I, V68A, M70L
VL: B2 VL with V104L
B9: humanized anti-CD137 antibody clone 3713 (IgG4 S228P/kappa) (antibody, V domains shown)
VH: B2 VH with V12K, G46E, A72R, T97A
VL: B2 VL with V104L
B10: humanized anti-CD137 antibody clone 3711 (IgG4 S228P/kappa) (antibody, V domains shown)
VH: B2 VH with V12K, G46E, A72R, T97A
VL: B2 VL with G42K, V44P, Y71F, F87Y

Numbering of substitutions follows the chain as printed. Numbers in names are those of the source.

The first experiment addresses T1, CD137 protein (UniProt Q07011 24-186, limits assumed).
T1 construct: also called CD137 antigen; CD137 receptor
The experiment in a line: competition ELISA with CD137L: CD137 receptor coated, antibody titrated, CD137L added; A450-A620 falls with the antibody concentration (midpoint of an inhibition curve, called EC50 in the sheet's table). As for the experimental part: CD137 receptor was diluted in DPBS to 1 μg/mL, and then coated onto an ELISA plate (Corning, Catalog number: 9018, high binding) with a volume of 50 μL (0.05 μg) per well, and incubated at 4° C. overnight. The plate was decanted and washed once; assay diluent was added 200 μL/well. […] The diluted CD137 receptor was added to the assay plate, 50 μL/well, in duplicate. The plate was incubated one hour at room temperature. […] The plate was incubated one hour at room temperature and then washed three times with PBST. Goat anti-human IgG-H+L HRP conjugated at 1:100,000 20 dilution was added to the plate at 100 μL/well. The plate was then incubated one hour at room temperature followed by washing with PBST four times. The TMB substrate solution was added at 100 μL/well. The color was allowed to develop for 15 minutes, and was stopped with 100 μL/well 2N H2SO4. Absorbance at 450 nm and 620 nm was determined by a Tecan F200 Pro reader.
Background: An ELISA detects its analyte on a solid surface through an enzyme-linked reagent.
As usually defined, the EC50 is the concentration at which the effect is half-maximal. High values mean a less potent agent, low ones a more potent agent. On to B1, for which the EC50 was found to be 0.101 µg/mL.

Another experiment deals with T1, CD137 protein. The experiment in a line: BLI (Octet Red 96), antibody on anti-human Fc sensors, CD137 protein in solution, 1:1 model. As for the experimental part:
KD Measurements of CD137 Antigen Binding were made according to the protocol described in Example 2 above. The chimeric and humanized antibodies were tested in an antigen-binding assay on Octet Red 96 to estimate binding kinetics. Antibodies were loaded onto anti-human Fc (AHC) biosensors. Loaded sensors were dipped into a serial dilution of CD137 protein (300 nM, 1:3 down, 7 points) in assay buffer (PBS with 0.1% BSA, 0.02% Tween-20 (pH 7.2)).
Background: Biolayer interferometry detects binding as a change in optical thickness at a sensor tip.
The Kd is the equilibrium constant for the complex coming apart. A lower Kd goes with tighter binding. The koff is a measure of how fast the partners let go of each other. As a reminder, the kon is the second-order rate constant of association. The low end stands for slow association, the high end for fast association. As to B2, the Kd worked out at 5.9 nM, the koff was 0.0018 s⁻¹ and the kon came out at 310000 M⁻¹ s⁻¹.

With B3, the equilibrium dissociation constant (Kd) was 8.3 nM, the koff turned out to be 0.0026 s⁻¹ and the on-rate constant (kon) came to 310000 M⁻¹ s⁻¹.

Consider B4, for which the Kd turned out to be 10 nM, the koff was 0.0031 s⁻¹ and the kon was 310000 M⁻¹ s⁻¹.

Turning to B5, the Kd was 2.3 nM, the koff was 0.00034 s⁻¹ and the kon came to 150000 M⁻¹ s⁻¹.

Regarding B6, the dissociation constant (Kd) is 7 nM, the koff amounted to 0.0022 s⁻¹ and the kon amounted to 320000 M⁻¹ s⁻¹.

B7 displayed a koff of less than 1e-07 s⁻¹ and a kon of 130000 M⁻¹ s⁻¹.

The molecule B8 showed a Kd of 8.5 nM, a koff of 0.0026 s⁻¹ and a kon of 310000 M⁻¹ s⁻¹.

Consider B9, for which binding was characterised by a dissociation constant (Kd) of 3.8 nM, the koff is 0.0011 s⁻¹ and the kon came to 290000 M⁻¹ s⁻¹.

Take B10: binding was characterised by a dissociation constant (Kd) of 2.5 nM, the koff turned out to be 0.00046 s⁻¹ and the kon is 190000 M⁻¹ s⁻¹.

B1: binding was characterised by a dissociation constant (Kd) of 3.9 nM, the koff is 0.0011 s⁻¹ and the kon was found to be 280000 M⁻¹ s⁻¹.

The target in a further experiment is T1, CD137 protein. The experiment in a line: BLI (Octet Red 96); reference apparently the parental chimeric antibody 371. Here is the method:
(§1) The chimeric and humanized antibodies were tested in an antigen binding assay on Octet Red 96 to estimate binding kinetics. Antibodies were loaded onto anti-human Fc (AHC) biosensors. Loaded sensors were dipped into a serial dilution of CD137 protein (300 nM, 1:3 down, 7 points) in assay buffer (PBS with 0.1% BSA, 0.02% Tween-20 (pH 7.2)).
For the molecule B4, the fold higher off-rate amounted to 3 fold.

Another experiment has as its target T1, CD137 protein. The experiment in a line: BLI (Octet Red 96), antibody on anti-human Fc sensors, CD137 protein in solution, 1:1 model. The source holds these as a separate data set. As for the experimental part:
as §1
As for B4, the Kd stood at 10 nM, the koff amounted to 0.0031 s⁻¹ and the kon is 310000 M⁻¹ s⁻¹.

B10 displayed a Kd of 2.4 nM, a koff of 0.00046 s⁻¹ and a kon of 190000 M⁻¹ s⁻¹.

The molecule B1 yielded a Kd of 3.9 nM, an off-rate (koff) of 0.0011 s⁻¹ and a kon of 280000 M⁻¹ s⁻¹.

Values taken from patent US20210246218A1 (LYVGEN BIOPHARMA SUZHOU, published 2021).
